9 substances from publication PMC8202330, “Phosphorylation of the LIR Domain of SCOC Modulates ATG8 Binding Affinity and Specificity” (Journal of Molecular Biology, 2021) can be followed below.

One test deals with LC3C (UniProt Q9BXW4). The experiment in a line: bio-layer interferometry, immobilised biotin peptide. Conditions: reference: unphosphorylated WT peptide.
For a further test, the target named is GABARAPL1 (UniProt Q9H0R8). The test is described as above. Conditions: reference: unphosphorylated WT peptide.
In another test the target is GABARAP (UniProt O95166). The description is as above. To be noted: reference: unphosphorylated WT peptide.
The next test addresses LC3A (UniProt Q9H492). Described as above. To be noted: reference: unphosphorylated WT peptide.
Another test deals with GABARAPL2 (UniProt P60520). The description is as above. To be noted: reference: unphosphorylated WT peptide.
In the next test the target is LC3B (UniProt Q9GZQ8). The description is as above. To be noted: reference: unphosphorylated WT peptide.
Test [1] concerns the target SCOC LIR peptide phosphorylated at S12 and S18 (BLI) (human). The test can be described thus: BLI; biotinylated LIR peptide immobilized on streptavidin biosensor, ATG8 in solution; 25 mM Tris pH 7.5, 150 mM NaCl, 0.5 mM TCEP, 0.1% Tween20, 1 mg/ml BSA; 25 °C; Kd from response against concentration.
Test [2] has as its target SCOC aa 11–25 LIR peptide (human). The description is as above.
Test [3] has as its target SCOC aa 6–18 LIR peptide (human). Described as above.
Test [4] addresses SCOC pS12 LIR peptide (human). The test is described as above.

GABARAPL1, sequence (Q9H0R8 whole entry, looked up): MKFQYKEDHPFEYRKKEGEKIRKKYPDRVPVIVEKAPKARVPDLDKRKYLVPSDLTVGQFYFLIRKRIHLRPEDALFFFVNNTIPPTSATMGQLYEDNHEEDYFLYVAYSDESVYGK
GABARAPL1 (for BLI), sequence (Q9H0R8 whole entry): as the sequence (Q9H0R8 whole entry, looked up) above
GABARAP, sequence (O95166 whole entry, looked up): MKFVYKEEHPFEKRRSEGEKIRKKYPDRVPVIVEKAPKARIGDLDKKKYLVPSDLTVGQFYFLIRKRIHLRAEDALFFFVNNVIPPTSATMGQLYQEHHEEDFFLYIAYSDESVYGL
GABARAPL2, sequence (P60520 whole entry, looked up): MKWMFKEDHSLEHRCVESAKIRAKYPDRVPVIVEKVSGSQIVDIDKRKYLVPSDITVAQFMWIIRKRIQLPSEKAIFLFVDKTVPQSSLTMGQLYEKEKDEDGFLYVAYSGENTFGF
LC3C, sequence (Q9BXW4 whole entry, looked up): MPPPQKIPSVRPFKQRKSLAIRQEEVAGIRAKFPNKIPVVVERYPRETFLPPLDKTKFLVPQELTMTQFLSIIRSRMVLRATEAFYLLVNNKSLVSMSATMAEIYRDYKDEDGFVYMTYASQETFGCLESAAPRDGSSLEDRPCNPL
LC3C (for BLI), sequence (Q9BXW4 1-126): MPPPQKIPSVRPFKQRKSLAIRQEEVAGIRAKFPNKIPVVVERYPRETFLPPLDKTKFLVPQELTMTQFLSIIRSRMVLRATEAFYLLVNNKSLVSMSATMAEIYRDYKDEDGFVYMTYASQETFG
SCOC pS12 LIR peptide (human), sequence (peptide, as listed by the source): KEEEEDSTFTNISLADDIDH

Turning to “SCOC (isoform 3) LIR domain, 6-25 (from UniProt Q9UIL1-2) pT15 peptide”, the fold change entry in the test with LC3C (sites T15) is reported as “stronger”; in the test with GABARAPL1 (sites T15) it was “same”; with GABARAP (sites T15), “same”; with LC3A (sites T15), “stronger”; with GABARAPL2 (sites T15), “same”; with LC3B (sites T15), “stronger”.

Take “SCOC (isoform 3) LIR domain, 6-25 (from UniProt Q9UIL1-2) pS12 peptide”: the fold change result with LC3C (sites S12), in the test with GABARAPL1 (sites S12), with GABARAP (sites S12), in the test with LC3A (sites S12), with GABARAPL2 (sites S12) and with LC3B (sites S12) was “stronger” in each case.

Take “LC3A (for BLI) (from UniProt Q9H492 1-121) (natural protein)”: the fold increase in affinity over SCOC WT LIR peptide in test [1] is 17 fold.

As for “SCOC (isoform 3) LIR domain, 6-25 (from UniProt Q9UIL1-2) pT13 peptide”, the “binding against the reference” value with LC3C (sites T13), with GABARAPL1 (sites T13), with GABARAP (sites T13), with GABARAPL2 (sites T13) and with LC3B (sites T13) was “same” throughout.

In [1], “LC3C (for BLI) (from UniProt Q9BXW4 1-126) (natural protein)” showed a fold increase in affinity over SCOC WT LIR peptide of 21 fold.

With “SCOC (isoform 3) LIR domain, 6-25 (from UniProt Q9UIL1-2) pS18 peptide”, the fold change result is “stronger” with LC3C (sites S18); “same” with GABARAPL1 (sites S18); “same” with GABARAP (sites S18); “stronger” with LC3A (sites S18); “same” in the test with GABARAPL2 (sites S18); “stronger” with LC3B (sites S18).

For the substance “SCOC (isoform 3) LIR domain, 6-25 (from UniProt Q9UIL1-2) pS12/pT15 peptide”, the fold change entry in the test with LC3C (sites S12,T15), in the test with GABARAPL1 (sites S12,T15), with GABARAP (sites S12,T15), with LC3A (sites S12,T15), in the test with GABARAPL2 (sites S12,T15) and with LC3B (sites S12,T15) was “stronger” throughout.

For “GABARAPL1 (for BLI) (from UniProt Q9H0R8 1-117) (natural protein)”, the fold decrease in affinity against SCOC WT LIR peptide in test [2] was 104 fold; in test [3] it was 4 fold. This substance also returned a fold increase in affinity over SCOC WT LIR peptide in test [4] of 2 fold.

For the substance “SCOC (isoform 3) LIR domain, 6-25 (from UniProt Q9UIL1-2) pS12/pS18 peptide”, the fold change result with LC3C (sites S12,S18), with GABARAPL1 (sites S12,S18), with GABARAP (sites S12,S18), with LC3A (sites S12,S18), with GABARAPL2 (sites S12,S18) and with LC3B (sites S12,S18) was “stronger” in each case.
